One assay deals with T1, rat RANKL (rat, UniProt Q9ESE2 141-318, limits assumed).
T1 construct: Construct not described
T1 sequence (looked up): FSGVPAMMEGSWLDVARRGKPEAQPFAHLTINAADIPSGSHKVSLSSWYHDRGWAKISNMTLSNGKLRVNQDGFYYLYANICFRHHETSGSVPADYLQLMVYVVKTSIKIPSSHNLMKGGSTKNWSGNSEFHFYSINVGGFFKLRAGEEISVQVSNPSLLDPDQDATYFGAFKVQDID
The assay is described as follows: SPR (BIAcore 2000), antibody captured on Protein A, RANKL as analyte, 25 C; rat RANKL. (SPR reads the build-up and loss of mass on a sensor chip optically.)

Assay [1] deals with T2, human RANKL (human, UniProt O14788 158-317, limits assumed).
T2 sequence: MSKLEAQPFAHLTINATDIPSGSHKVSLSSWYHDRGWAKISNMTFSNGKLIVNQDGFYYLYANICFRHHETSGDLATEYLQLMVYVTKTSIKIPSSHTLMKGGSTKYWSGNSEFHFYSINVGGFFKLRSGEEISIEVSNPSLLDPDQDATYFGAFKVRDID
Put plainly: cell-based or functional assay.

A further assay addresses T3, mouse RANKL (mouse, UniProt O35235 158-316, limits assumed).
T3 construct: Construct not described; also called murine RANKL
T3 sequence (looked up): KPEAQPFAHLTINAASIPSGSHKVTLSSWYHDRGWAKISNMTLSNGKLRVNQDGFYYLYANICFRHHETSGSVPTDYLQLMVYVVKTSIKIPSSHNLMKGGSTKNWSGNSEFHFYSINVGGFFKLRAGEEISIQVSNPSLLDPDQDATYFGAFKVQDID
The assay is described as follows: SPR (BIAcore 2000), antibody captured on Protein A, RANKL as analyte, 25 C; mouse RANKL.

In assay [2] the target is T2, human RANKL. Put plainly: SPR (BIAcore 2000), antibody captured on Protein A, RANKL as analyte, 25 C; human RANKL. On the procedure:
The BIAcore® 2000 instrument is used to measure binding affinity. All measurements are performed at 25° C. 2 ug/mL of exemplified antibody of Example 1 is dissolved in HBS-EP buffer (150 mM sodium chloride, 3 mM EDTA, 0.005% (w/v) surfactant P-20, and 10 mM HEPES, pH7.4). Protein A is immobilized on flow cells 1 to 4 of a CM4 sensor chip at a level of 500 response units (Rus) using an amine coupling kit.
Binding is evaluated using multiple analytical cycles. Each cycle is performed at a flow rate of 20 uL/minute. About 10 uL of the exemplified antibody of Example 1, at a concentration of 2 ug/mL, is injected, aiming to capture about 100-200Rus; 250 uL of human RANKL (starting at 5 nM and using two-fold serial dilutions for each cycle) is injected, ten minutes is given for dissociation, and 10 uL of 10 mM glycine hydrochloride, pH 1.5 is used for regeneration. Association and dissociation rates for each cycle are evaluated using a “1:1 with mass transfer” binding model in the BIAevaluation software.

In general, Kd refers to the equilibrium constant for the complex coming apart. Lower therefore signals higher affinity.

B1: exemplified antibody of Example 1 (antibody, human IgG4 S228P, kappa, F234A L235A, V domains shown)
VH: QVQLVQSGAEVKKPGSSVKVSCKASGYAFTNYYIEWVRQAPGQGLEWMGVINPGWGDTNYNEKFKGRVTITADKSTSTAYMELSSLRSEDTAVYYCARRDTAHGYYALDPWGQGTTVTVSS
VL: DIQMTQSPSSLSASVGDRVTITCKASQNVGTNVAWYQQKPGKAPKLLIYSASYRYSGVPSRFSGSGSGTDFTLTISSLQPEDFATYYCQQYWDYPLTFGGGTKVEIKR
notes: also called the antibody; anti-RANKL antibody
With B1, the Kd turned out to be 0.0344 nM with rat RANKL, 0.00664 nM with mouse RANKL and 0.00282 nM in the assay with human RANKL [2]. Also, in the assay with human RANKL [1], the “IC50, neutralization of human RANKL induced NF-kB driven luciferase luminescence in HEK293 cells expressing human RANK” value was found to be 0.069 nM.
